From the domain aggregation screens of Martell et al. (2025)

Test: soluble fraction after stress (log2 fold change); higher = more stays soluble; pooled small domains, quantitative proteomics
Conditions: stress: 75 degC
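Note: 20 min heating vs room temperature control held 20 min.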

Row | Sequence | soluble fraction (log2)
1 | HMRHLSVPNRQVEGALDHIRSQGWLAEGMRVFASEDGSARLIPLGPGAPLEMLEPLAKFDVISHEGKPY | -0.149
2 | HMKSIRIPFILTEGPNSQKITIDIDSDEEFRIGDVFDEDDKLWSINQILISGDRKAKMAIASEVTSISALR | -2.01
3 | HMSDKPIFIDTAGIAALSAIGFSKYQATIIFNYIKKGGAIYTVKDLAKIYSIDQKTIDLTQSKIIFS | 0.365
4 | HMNDLKEDTITVQSVEYIDSDDGTMVYIKDTNHQVYKQAFKEDESLIRISAGDVLHVKYQPMDNEIHLL | -0.341
5 | HMHVYQSLVTDRVVPGGGYRTTEAILSTEAWRNTLLEQAKRELIGVRNKYASLTELAKVWTAIDTVT | -1.65
6 | HMGAGFREAIPPALDGERIDRVVSLLAYVSRNRAAGALAAGSVSVDGEVVFQRSRRVREGEELVVTGFERE | -1.01
7 | HMLKDQSIAQLEKNLDDLKGLMRKMFGSSDVPKITKMISDIESSLANFNQSKANKLIVQTTNYISSKL | -0.664
8 | HMEQRREEFILLAKELLEKELRKQNLEVHENLKPDVLNDVAKRLGMVSMDDLLAAVGDGKITPGTVVSKIV | -0.0625
9 | HMEDELFSVARAAFPEYASKIHMNYGSTVQSIARQSGVLTVSETKQLNENQQISYLEYSNGAVVLALA | -0.0187
10 | HMYIVVPDLSKKDINEVANILAAQSLRFQVIDSANFRSDFPKNAVISQKPLAGSEVKVNKKIYLQLNPS | -0.43
11 | HMLLRVGGLVKDGSVRTDNDLGIKFIIEDNLAEVSVLYNGILPDLFREGQGVIAEGKFIDNIFIANEIVA | -0.682
12 | HMTTVRLNATVPPELALQRLDRVARELFPEYSRNRLQQWIRSGELLVNGSPSGVRDKVPLGAELAVAANLE | -0.657
13 | HMSEMDNMEWVREQYFQNMIYEIGEWVRDKKTGIVGEVVKRGTNYVTVVQEDFSLHKIWLEDLETTEK | -0.841
14 | HMLPDGEAFVKVNTSLNIRTGPWGQIVGWFHNNDKVKIIGRDGDWYKISHNGQTRYIHSRYVSSSR | -1.2
15 | HMGDAIPVPDVSGFSEDQAMNNLRKVGLRPKATYVADDNTAKGYVTGTSPAKNIEVAPDSEVIVYVSSGP | 0.697
16 | HMPVTAQFDFSKVLAGRTLKDGEFSFVLKDKNGTVLQTKTNDASGKVAFDALIYKNNEVGEHKYTVEEVI | 0.237
17 | HMGRKIDDPSSMTGAEKAAVILLALGDEQRQLWEMMDDEEIRVVSQAMVNLGNVTSGAVEKLIMEFVGSMS | -0.37
18 | HMSTMTDAQRHLFANKLSQLPEMGKYSHGTESYQQFAVRIAEMLQTPKKFKELYPYLQKVGFKA | -0.379
19 | HMTKQRSIILDLLKANQDRHLTAEEMLELLNQNHTPVSKATLYRYLDMLVSQNAVRKFIIDDQPSAGYQYL | -2

Row | Sequence | soluble fraction (log2)
20 | HMKGPAFAKIDLTQLPAGLTSFLNTNAAGFKLDYAVAITKDSVIIEYHVGVTIGTAKKEFHLDPNFQLLP | -0.499
21 | HMYGQEVKVLGLFGDRAFIKVDEKSAVIRIGQSHQNVQLKSISNQKAILLVDNKDIALGLGDSYQSA | -1.69
22 | HMIVIMKAKAEEEDVNRVIDTIQSLGLRTQLNLGAERMVVAVIGDISKIGEDNFFRIRAMKGVENTVFVSK | -2.12
23 | HMRAAEPTTDAQRDRRRRIVLTAMTMLQERGYDEIQMRDVAQQAGVALGTLYRYFPSKEQLFAHVLVE | -1.71
24 | HMAVPFTIDVSQNGRYFIEEDNQVVEVSIGFLEDRFLRIIKSNPDIEVIIRGDAKASYESIAELLAVLQ | -0.904
25 | HMPDRQKDIQNWQQIAETLLNMLDKYVAALETGKTGLAEAYKAIFAETLRRLDDRLDPEQFLP | -1.91
26 | HMGMTDEELNREEERVVAELEAKDEEELTIYNEEDLTFEETLDLPEGSLMRDRENGMIYLKVLDIWMPY | -0.575
27 | HMFNDGEIAIYTDPRGDAGETQIWKRGKGYYGQNDSFDFEAKDKKELEMKLKRWGYVLIAGSIDE | -0.435
28 | HMNMAEQGISLDSEAGKARFVSQALPLLKQLPDGVFKQRMLNQLADRVEVTADFIAQQLAQLKAA | -0.0979
29 | HMRKEDYLPIGSVINMDDRKFRVDSVDFDKDKVSLQDMALADARMPIFWEEPLTVVRELYEQQDE | 0.135
30 | HMNNTIKFFVSQDDDSTRLDVFLSKKIENLTRSNIKKFINLNNVKINKATINSPSKKVKLYDEIEIKFSS | -2.46
31 | HMVNVTEAIDLENGTGKLSGTFNHEPKSAEEIIFLLKIDTNKWKLSQYWNKQMGDHWRVSALISQI | -2.82
32 | HMDQDLGFLINKYFELGKDYNTLVEIYEKIKEYIASIDKKMLEYTKNFTIEQLKKWLDDGTINNIILTLG | -0.122
33 | HMPQPEIEIAAVVPYSAGALLSRIHDDGELLAPVEYRGEGVFVHARVPADIEAAMRRGGMLSPAET | 0.0386
34 | HMDPFVILGISKDSSQSEILEAYKTKRAYYQEHVFDEGDQGAQAARMLGQLDDAYQQAMELSHE | 0.0281
35 | HMGSEYPSNPLASRWAKGVRLYHDEWGYGVIQAARGSEPDDYVITVRFESGAEKSFLPKFQAHSLMIVKD | -1.21
36 | HMQNNWFYEENGQRKGPVSENEMVQFIKSSVISHGTSVWKQGFPDWLKVENTDLRVHLDNSAP | 0.105
37 | HMQDKIWVVDETQLYPKLIEAMSEGKAVIHDGVAYWAEGSGKTGVIQHLPFKETTVQNVEEAIKLAQ | 0.0953
38 | HMQSAMALTKDLIEQQGKYYHRGQPFTGVGFAKNKKGKFVTEEPFKNGLLHGKRVNYDHNGHVLAREK | -0.105
